The values below come from PMC5331858.

Experiment [1] deals with CD4-Sho1-SH3-ΔAY (MYTH bait) (S. cerevisiae) (UniProt P40073). In words: two-hybrid.
The target of experiment [2] is CD4-Sho1-SH3-I49A (MYTH bait) (S. cerevisiae). Put plainly: two-hybrid.

Sequence of UniProt P40073 (P40073 298-367, stated change not applied): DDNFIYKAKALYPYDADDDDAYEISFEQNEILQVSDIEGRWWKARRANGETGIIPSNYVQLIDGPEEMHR

In the case of “Fps1-N (N-terminal soluble domain of Fps1p, NubG MYTH prey) (from UniProt P23900 1-255) (domain or fragment)”, the fold change relative to wildtype Sho1p SH3 (β-galactosidase, Miller units) in experiment [1] came out at 0.3 fold; in experiment [2], 0.2 fold.

B1: NubG-Pbs2 (full-length Pbs2p MYTH prey) (natural protein)
chain: MEDKFANLSLHEKTGKSSIQLNEQTGSDNGSAVKRTSSTSSHYNNINADLHARVKAFQEQRALKRSASVGSNQSEQDKGSSQSPKHIQQIVNKPLPPLPVAGSSKVSQRMSSQVVQASSKSTLKNVLDNQETQNITDVNINIDTTKITATTIGVNTGLPATDITPSVSNTASATHKAQLLNPNRRAPRRPLSTQHPTRPNVAPHKAPAIINTPKQSLSARRGLKLPPGGMSLKMPTKTAQQPQQFAPSPSNKKHIETLSNSKVVEGKRSNPGSLINGVQSTSTSSSTEGPHDTVGTTPRTGNSNNSSNSGSSGGGGLFANFSKYVDIKSGSLNFAGKLSLSSKGIDFSNGSSSRITLDELEFLDELGHGNYGNVSKVLHKPTNVIMATKEVRLELDEAKFRQILMELEVLHKCNSPYIVDFYGAFFIEGAVYMCMEYMDGGSLDKIYDESSEIGGIDEPQLAFIANAVIHGLKELKEQHNIIHRDVKPTNILCSANQGTVKLCDFGVSGNLVASLAKTNIGCQSYMAPERIKSLNPDRATYTVQSDIWSLGLSILEMALGRYPYPPETYDNIFSQLSAIVDGPPPRLPSDKFSSDAQDFVSLCLQKIPERRPTYAALTEHPWLVKYRNQDVHMSEYITERLERRNKILRERGENGLSKNVPALHMGGL
Regarding B1, the fold change relative to wildtype Sho1p SH3 (β-galactosidase, Miller units) in experiment [1] was 0.5 fold.
